Assay results as given in paper doi:10.1101/619841.

Tests used:
[1] = target: cross-linked and fluorescent HIV-1 CA tubes co-assembled from CA A14C/E45C and labelled CA K158C (HIV-1); test: TIRF microscopy biosensor, equilibrium binding
[2] = target: cross-linked and fluorescent HIV-1 CA tubes co-assembled from CA A14C/E45C and labelled CA K158C (HIV-1); test: TIRF microscopy biosensor

Substance	Kd [1] [µM]	stoichiometry N [1] [CypA per CA]	molar binding ratio (370 nM analyte) (molecules per CA) [2]
cyclophilin A labelled at Cys51 with Alexa Fluor 647 (from UniProt P62937 1-165) (natural protein)	8	0.5	
full length CPSF6 fused at its N-terminus to GFP (natural protein)			0.2
